Assay results: the supplement of paper PMC11316812
± gives the standard deviation of the averaged measurements.

How the values were obtained:
[1] = system: MCF7; assay: percentage of EdU-negative (G0-arrested) nuclei per well, 72 h; higher = more G0 arrest; conditions: reference: sequence is the full UniProt precursor, the tested protein was the secreted form or ectodomain
[2] = system: hTERT-HMEC; assay: as above; conditions: reference: sequence is the full UniProt precursor, the tested protein was the secreted form or ectodomain
[3] = protein concentration 0.0257143 µM
[4] = protein concentration 0.257143 µM
[5] = protein concentration 0.00828571 µM
[6] = protein concentration 0.0828571 µM
[7] = protein concentration 0.03125 µM
[8] = protein concentration 0.3125 µM
[9] = protein concentration 0.0225 µM
[10] = protein concentration 0.00825 µM
[11] = protein concentration 0.0825 µM
[12] = protein concentration 0.02225 µM
[13] = protein concentration 0.2225 µM
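Also: secreted proteins added to cultured cells, EdU pulse at the end, nuclei found by Hoechst imaging, EdU status from nuclear versus surrounding ring intensity ratio, PBS as neutral control.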

Sequence: MKAIIHLTLLALLSVNTATNQGNSADAVTTTETATSGPTVAAADTTETNFPETASTTANTPSFPTATSPAPPIISTHSSSTIPTPAPPIISTHSSSTIPIPTAADSESTTNVNSLATSDIITASSPNDGLITMVPSETQSNNEMSPTTEDNQSSGPPTGTALLETSTLNSTGPSNPCQDDPCADNSLCVKLHNTSFCLCLEGYYYNSSTCKKGKVFPGKISVTVSETFDPEEKHSMAYQDLHSEITSLFKDVFGTSVYGQTVILTVSTSLSPRSEMRADDKFVNVTIVTILAETTSDNEKTVTEKINKAIRSSSSNFLNYDLTLRCDYYGCNQTADDCLNGLACDCKSDLQRPNPQSPFCVASSLKCPDACNAQHKQCLIKKSGGAPECACVPGYQEDANGNCQKCAFGYSGLDCKDKFQLILTIVGTIAGIVILSMIIALIVTARSNNKTKHIEEENLIDEDFQNLKLRSTGFTNLGAEGSVFPKVRITASRDSQMQNPYSRHSSMPRPDY [Q9H3R2]
- percentage of EdU-negative [1, 3]: 22.5 ± 1.3%
- percentage of EdU-negative [1, 4]: 26.7 ± 0.67%
- percentage of EdU-negative [2, 3]: 5.64 ± 0.33%
- percentage of EdU-negative [2, 4]: 5.31 ± 0.37%

Sequence: MSLWQPLVLVLLVLGCCFAAPRQRQSTLVLFPGDLRTNLTDRQLAEEYLYRYGYTRVAEMRGESKSLGPALLLLQKQLSLPETGELDSATLKAMRTPRCGVPDLGRFQTFEGDLKWHHHNITYWIQNYSEDLPRAVIDDAFARAFALWSAVTPLTFTRVYSRDADIVIQFGVAEHGDGYPFDGKDGLLAHAFPPGPGIQGDAHFDDDELWSLGKGVVVPTRFGNADGAACHFPFIFEGRSYSACTTDGRSDGLPWCSTTANYDTDDRFGFCPSERLYTQDGNADGKPCQFPFIFQGQSYSACTTDGRSDGYRWCATTANYDRDKLFGFCPTRADSTVMGGNSAGELCVFPFTFLGKEYSTCTSEGRGDGRLWCATTSNFDSDKKWGFCPDQGYSLFLVAAHEFGHALGLDHSSVPEALMYPMYRFTEGPPLHKDDVNGIRHLYGPRPEPEPRPPTTTTPQPTAPPTVCPTGPPTVHPSERPTAGPTGPPSAGPTGPPTAGPSTATTVPLSPVDDACNVNIFDAIAEIGNQLYLFKDGKYWRFSEGRGSRPQGPFLIADKWPALPRKLDSVFEERLSKKLFFFSGRQVWVYTGASVLGPRRLDKLGLGADVAQVTGALRSGRGKMLLFSGRRLWRFDVKAQMVDPRSASEVDRMFPGVPLDTHDVFQYREKAYFCQDRFYWRVSSRSELNQVDQVGYVTYDILQCPED
- percentage of EdU-negative [1, 5]: 24.2 ± 1.4%
- percentage of EdU-negative [1, 6]: 24.7 ± 0.13%
- percentage of EdU-negative [2, 5]: 4.71 ± 0.63%
- percentage of EdU-negative [2, 6]: 6.64 ± 0.96%

Sequence: MLSCRLQCALAALSIVLALGCVTGAPSDPRLRQFLQKSLAAAAGKQELAKYFLAELLSEPNQTENDALEPEDLSQAAEQDEMRLELQRSANSNPAMAPRERKAGCKNFFWKTFTSC
- percentage of EdU-negative [1, 7]: 25.9 ± 3.1%
- percentage of EdU-negative [1, 8]: 27 ± 1.9%
- percentage of EdU-negative [2, 7]: 5.72 ± 0.93%
- percentage of EdU-negative [2, 8]: 4.88 ± 0.35%

Sequence: MQAARGGAGRPERPGRPGRGPERERERPPGAGAASPCAAPGLPAGGATIHPGSPSAWPPRARAALRLWLGCVCFALVQADSPSAPVNVTVRHLKANSAVVSWDVLEDEVVIGFAISQQKKDVRMLRFIQEVNTTTRSCALWDLEEDTEYIVHVQAISIQGQSPASEPVLFKTPREAEKMASKNKDEVTMKEMGRNQQLRTGEVLIIVVVLFMWAGVIALFCRQYDIIKDNEPNNNKEKTKSASETSTPEHQGGGLLRSKI [Q8NAU1]
- percentage of EdU-negative [1, 9]: 27.08 ± 0.2%
- percentage of EdU-negative ([1]; protein concentration 0.225 µM): 25.3 ± 1.4%
- percentage of EdU-negative [2, 9]: 5.26 ± 1.1%
- percentage of EdU-negative ([2]; protein concentration 0.225 µM): 5.43 ± 0.82%

Sequence: MLLEPGRGCCALAILLAIVDIQSGGCINITSSASQEGTRLNLICTVWHKKEEAEGFVVFLCKDRSGDCSPETSLKQLRLKRDPGIDGVGEISSQLMFTISQVTPLHSGTYQCCARSQKSGIRLQGHFFSILFTETGNYTVTGLKQRQHLEFSHNEGTLSSGFLQEKVWVMLVTSLVALQAL
- percentage of EdU-negative [1, 9]: 24.09 ± 0.069%
- percentage of EdU-negative ([1]; protein concentration 0.225 µM): 28.4 ± 2.2%
- percentage of EdU-negative [2, 9]: 4.71 ± 0.094%
- percentage of EdU-negative ([2]; protein concentration 0.225 µM): 5.62 ± 0.37%

Sequence: MLLSVPLLLGLLGLAVAEPAVYFKEQFLDGDGWTSRWIESKHKSDFGKFVLSSGKFYGDEEKDKGLQTSQDARFYALSASFEPFSNKGQTLVVQFTVKHEQNIDCGGGYVKLFPNSLDQTDMHGDSEYNIMFGPDICGPGTKKVHVIFNYKGKNVLINKDIRCKDDEFTHLYTLIVRPDNTYEVKIDNSQVESGSLEDDWDFLPPKKIKDPDASKPEDWDERAKIDDPTDSKPEDWDKPEHIPDPDAKKPEDWDEEMDGEWEPPVIQNPEYKGEWKPRQIDNPDYKGTWIHPEIDNPEYSPDPSIYAYDNFGVLGLDLWQVKSGTIFDNFLITNDEAYAEEFGNETWGVTKAAEKQMKDKQDEEQRLKEEEEDKKRKEEEEAEDKEDDEDKDEDEEDEEDKEEDEEEDVPGQAKDEL
- percentage of EdU-negative [1, 9]: 21.8 ± 0.44%
- percentage of EdU-negative ([1]; protein concentration 0.225 µM): 28.2 ± 2.5%
- percentage of EdU-negative [2, 9]: 5.2 ± 0.44%
- percentage of EdU-negative ([2]; protein concentration 0.225 µM): 15.5 ± 2.6%

Sequence: MKQKMMARLLRTSFALLFLGLFGVLGAATISCRNEEGKAVDWFTFYKLPKRQNKESGETGLEYLYLDSTTRSWRKSEQLMNDTKSVLGRTLQQLYEAYASKSNNTAYLIYNDGVPKPVNYSRKYGHTKGLLLWNRVQGFWLIHSIPQFPPIPEEGYDYPPTGRRNGQSGICITFKYNQYEAIDSQLLVCNPNVYSCSIPATFHQELIHMPQLCTRASSSEIPGRLLTTLQSAQGQKFLHFAKSDSFLDDIFAAWMAQRLKTHLLTETWQRKRQELPSNCSLPYHVYNIKAIKLSRHSYFSSYQDHAKWCISQKGTKNRWTCIGDLNRSPHQAFRSGGFICTQNWQIYQAFQGLVLYYESCK [Q8WZ79]
- percentage of EdU-negative [1, 10]: 28.9 ± 1.8%
- percentage of EdU-negative [1, 11]: 32.3 ± 0.53%
- percentage of EdU-negative [2, 10]: 5.48 ± 0.48%
- percentage of EdU-negative [2, 11]: 15.5 ± 1.6%

Sequence: MAPLRPLLILALLAWVALADQESCKGRCTEGFNVDKKCQCDELCSYYQSCCTDYTAECKPQVTRGDVFTMPEDEYTVYDDGEEKNNATVHEQVGGPSLTSDLQAQSKGNPEQTPVLKPEEEAPAPEVGASKPEGIDSRPETLHPGRPQPPAEEELCSGKPFDAFTDLKNGSLFAFRGQYCYELDEKAVRPGYPKLIRDVWGIEGPIDAAFTRINCQGKTYLFKGSQYWRFEDGVLDPDYPRNISDGFDGIPDNVDAALALPAHSYSGRERVYFFKGKQYWEYQFQHQPSQEECEGSSLSAVFEHFAMMQRDSWEDIFELLFWGRTSAGTRQPQFISRDWHGVPGQVDAAMAGRIYISGMAPRPSLAKKQRFRHRNRKGYRSQRGHSRGRNQNSRRPSRATWLSLFSSEESNLGANNYDDYRMDWLVPATCEPIQSVFFFSGDKYYRVNLRTRRVDTVDPPYPRSIAQYWLGCPAPGHL
- percentage of EdU-negative [1, 9]: 25.1 ± 3.1%
- percentage of EdU-negative ([1]; protein concentration 0.225 µM): 31.11 ± 0.19%
- percentage of EdU-negative [2, 9]: 5.37 ± 0.14%
- percentage of EdU-negative ([2]; protein concentration 0.225 µM): 4.7 ± 1.1%

Sequence: MYLSRFLSIHALWVTVSSVMQPYPLVWGHYDLCKTQIYTEEGKVWDYMACQPESTDMTKYLKVKLDPPDITCGDPPETFCAMGNPYMCNNECDASTPELAHPPELMFDFEGRHPSTFWQSATWKEYPKPLQVNITLSWSKTIELTDNIVITFESGRPDQMILEKSLDYGRTWQPYQYYATDCLDAFHMDPKSVKDLSQHTVLEIICTEEYSTGYTTNSKIIHFEIKDRFAFFAGPRLRNMASLYGQLDTTKKLRDFFTVTDLRIRLLRPAVGEIFVDELHLARYFYAISDIKVRGRCKCNLHATVCVYDNSKLTCECEHNTTGPDCGKCKKNYQGRPWSPGSYLPIPKGTANTCIPSISSIGNCECFGHSNRCSYIDLLNTVICVSCKHNTRGQHCELCRLGYFRNASAQLDDENVCIECYCNPLGSIHDRCNGSGFCECKTGTTGPKCDECLPGNSWHYGCQPNVCDNELLHCQNGGTCHNNVRCLCPAAYTGILCEKLRCEEAGSCGSDSGQGAPPHGSPALLLLTTLLGTASPLVF [Q9Y2I2]
- percentage of EdU-negative [1, 12]: 26.06 ± 0.23%
- percentage of EdU-negative [1, 13]: 28.6 ± 3.7%
- percentage of EdU-negative [2, 12]: 5.38 ± 0.34%
- percentage of EdU-negative [2, 13]: 5.84 ± 1.4%
